The values below come from US20250368752A1 (AMPSOURCE BIOPHARMA SHANGHAI, published 2025).

Test [1] concerns the target T1, human TFPI with a His tag (human, UniProt P10646 29-282, limits assumed).
T1 construct: Coupled to Ni-NTA sensors at 10 ug/mL for BLI; not shown: His tag
T1 sequence (looked up): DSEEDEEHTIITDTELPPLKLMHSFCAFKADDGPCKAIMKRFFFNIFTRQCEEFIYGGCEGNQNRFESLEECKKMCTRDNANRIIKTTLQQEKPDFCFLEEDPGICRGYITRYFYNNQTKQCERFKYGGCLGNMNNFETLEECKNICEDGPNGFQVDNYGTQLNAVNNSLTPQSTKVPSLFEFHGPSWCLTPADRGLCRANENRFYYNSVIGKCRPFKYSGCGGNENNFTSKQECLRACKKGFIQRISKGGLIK
Kind of test: BLI (ForteBio Octet), His-tagged human TFPI on Ni-NTA sensors, antibody 3.125-100 nM. The procedure: The binding affinity constant of the purified mouse monoclonal antibody against human TFPI (mAb3-71) to human TFPI was determined using biolayer interferometry (BLI) with the ForteBio Octet RED&QK system from PALL Corporation. The concentration gradient for multi-channel parallel quantitative analysis was set to 3.125, 6.25, 12.5, 25, 50, and 100 nM, and human TFPI with a His tag at 10 μg/mL was coupled to Ni-NTA sensors.
For orientation: In BLI a coated tip is dipped into the sample, and binding shifts an interference pattern.

Another test concerns the target T2, human TFPI protein (human, UniProt P10646 29-282, limits assumed).
T2 construct: Soluble human TFPI, coated on ELISA plates (6.1) and used in solution in the FXa and TF/FVIIa/FX assays (6.2, 6.3)
T2 sequence (looked up): T1 sequence (looked up)
The experiment in a line: ELISA, human TFPI coated at 0.1 ug/mL, HRP goat anti-human IgG detection. The procedure: Human TFPI was coated onto the ELISA plate at a concentration of 0.1 μg/mL, with 100 μL per well, and incubated overnight at 4° C. The coating solution was then discarded, and the wells were blocked with 200 μL of PBS solution containing 1% BSA (PBSB) per well at 37° C. for 1 hour. The plate was washed with PBS solution containing 0.05% Tween-20 (PBST). A series of diluted concentrations of AB8D were added, with 100 μL per well, and incubated for 1 hour at 37° C. The plates were washed with PBST, and then HRP-labeled goat anti-human IgG (H+L) (Jackson Laboratory) was added as the detection antibody, with incubation for 1 hour at 37° C. After washing three times with 0.05% PBST, TMB was added, with 100 μL per well, and the color was developed at room temperature for 5 minutes. The reaction was terminated by adding 0.2 M H₂SO₄, with 50 μL per well. The absorbance values were read at dual wavelengths of 450/620 nm using a microplate reader. Using OD450 nm-OD620 nm as the Y-axis and antibody concentration as the X-axis, the data were analyzed using GraphPad Prism 6 software with a four-parameter logistic curve fitting to calculate the EC₅₀ value.
On the technique in general: An ELISA detects its analyte on a solid surface through an enzyme-linked reagent.

Test [2] has as its target TFPI expressed on HUVECs (human) (UniProt P10646). The experiment in a line: flow cytometry on HUVEC cells, AF647 goat anti-human IgG detection.
Test [3] has the same target. The experiment in a line: cell-based or functional assay.

B1: mouse monoclonal antibody against human TFPI, mAb3-71 (antibody, V domains shown)
VH: QVQLQQPEAELMKPGASVKLSCKASGYTFTSYWMHWVKQRPGQGLEWIGEIKPDNGRINYNEKFKTKATLAVDKSSSTAYMQLNSLTSGDSAVYYCARSSVVDVAMDYWGQGTSVSVSS
VL: QIVLTQSPAIMSASPGEKVTLTCSASSSVSSSYLYWYQQKPGSSPKLWISGTSILASGVPARFSGSGSGTSYSLTISSMEAEDTASYFCHQWSHYPFTFGSGTKLEIK
notes: also called hybridoma cell line #3-71
By Kd is commonly meant the equilibrium constant for the complex coming apart. For orientation: koff means the rate constant with which the complex falls apart. Read a high koff as fast dissociation. As usually defined, the kon is a measure of how fast the partners come together. Lower therefore signals slow association. In test [1], B1 yielded a dissociation constant Kd of 4.54 pM, a koff of 1.31e-06 s⁻¹ and an on-rate (kon) of 289000 M⁻¹ s⁻¹.

B2: humanized anti-human TFPI antibody AB8D (antibody, V domains shown)
VH: EVQLVQSGAELKKPGASVKLSCKASGYTFTSYWMHWVRQTPGQGLEWIGEIKPDQGRINYNEKFKTRATLTADKSTSTAYMELSSLRSEDTAVYYCARSSVVDVAMDYWGQGTTVTVSS
VL: EIVLTQSPATLSLSPGERATLSCSASSSVSSSYLYWYQQKPGQAPRLWISGTSILASGVPARFSGSGSGTKYTLTISSLEPEDFAVYFCHQWSHYPFTFGQGTKLEIK
notes: Full-length humanized IgG of about 145 kD, expressed in CHO cells
One may read the EC50 as the concentration needed to bring the measured effect to its halfway point. Read a high EC50 as a need for much substance. Take B2: the half-maximal effective concentration (EC50) with human TFPI protein turned out to be 1.65 ng/mL; in test [2] it was 0.0286 µg/mL. In addition, the neutralization of TFPI on HUVEC cells (FVIIa/FX added, S-2765, OD405 nm) in test [3] was determined as 117 ng/mL.
